This passage reports Kd and yeast surface expression results from the FLAb antibody collection (doi:10.7554/elife.23156).

One data set has as its target fluorescein. As to the kind of experiment: Kd (Tite-Seq). The note with it: format: scFv 4-4-20, heavy + light.
The nature of data set [1]: yeast surface expression (ratio to wild type); higher = more expressed. The following applies: format: scFv 4-4-20, heavy + light.

B1: unnamed (protein)
chain 1: EVKLDETGGGLVQPGRPMKLSCVASGFEPQSPSPQNKRQSPEKGLEWVAQIRNKPYNYETYYSDSVKGRFTISRDDSKSSVYLQMNNLRVEDMGIYYCTAHETLLCCLWQGTSVTVS
chain 2: DVVMTQTPLSLPVSLGDQASISCRSSQSLVHSNGNTYLRWYLQKPGQSPKVLIYKVSNRFSGVPDRFSGSGSGTDFTLKISRVEAEDLGVYFCSQSTHVPWTFGGGTKLEIK
By Kd is commonly meant the equilibrium constant for the complex coming apart. B1: in the data set with fluorescein, the Kd is not below 10 µM. Also, the yeast surface expression in data set [1] was determined as 0.444.
